Laboratory results published in the supplement of paper PMC10126150.
± gives the standard deviation of the averaged measurements.

Test system: ATP
Assay: switch fluorescence ratio, 500 uM ATP over buffer (Cy3 cluster intensity, sum of 5 cycles each) (fold (ratio)); higher = stronger signal-on switching upon ATP binding; sequences stand for … in TCGTCGGCAGCGTCAGATGTGTATAAGAGACAGTTTTTTTTTTTTTTTTTTTTTTTTT…TC
Details: aptamer strand: ATP DNA aptamer (quencher-CACCTGGGGGAGTATTGCGGAGGAAGG + anchor), 100 nM annealed; ATP concentration: 500 uM
Outline: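 Five buffer/ATP imaging cycles were run on Cy3-labelled switching-strand clusters on a modified Illumina MiSeq flow-cell, with NaOH stripping and re-annealing between cycles. In each cycle, clusters annealed to 100 nM quencher-labelled ATP aptamer were imaged in selection buffer, then after 15 min with 500 uM ATP at 22 °C. Per cluster, the fluorescence ratio is summed target-cycle over summed buffer-cycle Cy3 intensity, averaged per switch-domain sequence. Only clusters within 100-1000 RFU were kept.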
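Note: ATP exposure 15 min at 22 °C before imaging.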

Sequence	switch fluorescence ratio
ATCATTGTTA	1 ± 0.053
ATCCAAGATT	1 ± 0.019
ATCCAGTGTC	1.057 ± 0.0061
ATCCAGTGTG	1.89 ± 0.2
ATCCCCGGAG	1.33 ± 0.12
ATCCGAGCAT	4.654 ± 0.039
ATCCGGTTCG	0.9946 ± 0.0095
ATCCTAAGGC	1 ± 0.029
ATCCTGGGGT	1.01 ± 0.029
ATCCTTTGTG	1.02 ± 0.053
ATCGAAATGG	1 ± 0.024
ATCGAACCTT	1.55 ± 0.45
ATCGACTTTT	1.015 ± 0.003
ATCGAGAACG	0.993 ± 0.014
ATCGAGTGTG	1.01 ± 0.027
ATCGATGGGT	1.03 ± 0.047
ATCGCCTTGT	0.9943 ± 0.0024
ATCGCGGCCG	1.02 ± 0.04
ATCGCGTACT	1.19 ± 0.04
ATCGCTTAAG	0.991 ± 0.035
ATCGCTTAAT	1.03 ± 0.049
ATCGCTTGAG	0.9725 ± 0.0034
ATCGGAAAAA	1.02 ± 0.026

Sequence	switch fluorescence ratio
ATCGGAGGAA	1.17 ± 0.061
ATCGGATTGT	1.012 ± 0.007
ATCGGATTTC	1.02 ± 0.047
ATCGGCATTT	1.027 ± 0.0084
ATCGGCGATT	1.04 ± 0.024
ATCGGCGGGA	0.986 ± 0.01
ATCGGGGATT	1.01 ± 0.014
ATCGGGGGCC	0.973 ± 0.042
ATCGGGGGTG	0.982 ± 0.036
ATCGGGGTAT	0.992 ± 0.042
ATCGGGGTCG	1.05 ± 0.038
ATCGGGTGGG	1.001 ± 0.0075
ATCGGGTGTG	0.9871 ± 0.0015
ATCGGGTTGG	0.965 ± 0.018
ATCGGTATAT	1.02 ± 0.039
ATCGTCCCGA	1.05 ± 0.039
ATCGTGCACA	0.973 ± 0.036
ATCGTGGATT	0.969 ± 0.019
ATCGTGGGTT	0.97919 ± 0.00077
ATCGTGTAGG	0.99 ± 0.11
ATCGTGTATC	1.06 ± 0.0081
ATCGTTATTA	1.02 ± 0.018
ATCGTTCCGC	1.22 ± 0.03

Sequence	switch fluorescence ratio
ATCGTTGGG	1.01 ± 0.055
ATCGTTTCGT	1.02 ± 0.019
ATCGTTTGTT	1.04 ± 0.062
ATCGTTTTGA	0.989 ± 0.013
ATCGTTTTTA	1.001 ± 0.004
ATCTAAAAGG	1.01 ± 0.059
ATCTAAACGT	1.0574 ± 0.00082
ATCTAATTAG	0.963 ± 0.045
ATCTACCATG	1.03 ± 0.04
ATCTACGAAA	1.31 ± 0.03
ATCTAGAGGA	0.985 ± 0.023
ATCTAGGGGA	0.9995 ± 0.0066
ATCTAGGGGG	1.05 ± 0.017
ATCTAGGGTG	1.08 ± 0.012
ATCTAGTAGT	1.01 ± 0.013
ATCTATAGTG	0.9651 ± 0.0035
ATCTATGTGG	0.982 ± 0.035
ATCTCACAGA	0.989 ± 0.025
ATCTGAACGT	1.02 ± 0.074
ATCTGAAGGT	0.975 ± 0.031
ATCTGATAGC	0.955 ± 0.047
ATCTGATGTC	0.978 ± 0.018
ATCTGCCTTG	1 ± 0.019

Sequence	switch fluorescence ratio
ATCTGGGAGT	1.014 ± 0.00032
ATCTGGGGGG	1 ± 0.064
ATCTGTCTAT	0.98 ± 0.026
ATCTTAAATA	0.9918 ± 0.0058
ATCTTGGTCT	1.01 ± 0.045
ATCTTTTTGG	0.996 ± 0.024
ATGAAAGACC	1.0427 ± 0.00025
ATGAAAGGAT	1.014 ± 0.0042
ATGAAAGGGT	0.998 ± 0.023
ATGAAATCAG	0.9991 ± 0.0044
ATGAAGACTA	0.9962 ± 0.0014
ATGAAGGGAT	0.9969 ± 0.00076
ATGAAGGTCT	0.968 ± 0.02
ATGAAGTAGG	0.989 ± 0.013
ATGAAGTGAG	1.01 ± 0.027
ATGAATAAAT	1.012 ± 0.0058
ATGAATAGAG	1.02 ± 0.031
ATGAATGTAT	0.9855 ± 0.0062
ATGAATTAAA	0.992 ± 0.018
ATGAATTTTT	0.992 ± 0.042
ATGACATGGG	1.04 ± 0.025
ATGACGAAAA	1.04 ± 0.058
ATGACGCGGG	0.959 ± 0.023

Sequence	switch fluorescence ratio
ATGACGCTTT	1.02 ± 0.022
ATGACTGGAG	0.9896 ± 0.0076
ATGACTTGTA	0.987 ± 0.015
ATGAGAATAG	1.01 ± 0.0016
ATGAGATAGT	1.002 ± 0.0049
ATGAGCACAA	1.09 ± 0.017
ATGAGCATTC	1.18 ± 0.026
ATGAGGCGAA	1.01 ± 0.011
ATGAGGCTTT	1.02 ± 0.011
ATGAGGGCGG	0.98 ± 0.021
ATGAGGGTCC	1.1 ± 0.032
ATGAGGGTCG	0.993 ± 0.014
ATGAGGTTAC	0.988 ± 0.074
ATGAGTACGG	1.04 ± 0.03
ATGAGTAGGG	1.018 ± 0.0098
ATGAGTCATG	1.01 ± 0.028
ATGAGTCGGA	0.975 ± 0.055
ATGAGTGACC	1.02 ± 0.016
ATGAGTGGTG	1.019 ± 0.0077
ATGAGTTATT	1.01 ± 0.013
ATGAGTTGCG	0.977 ± 0.029
ATGATACTTC	0.9968 ± 0.0027
ATGATAGGGA	1.01 ± 0.063

Sequence	switch fluorescence ratio
ATGATAGTAC	1.04 ± 0.017
ATGATATGCA	1.017 ± 0.003
ATGATCCCGC	1.2 ± 0.019
ATGATCTTCG	1.038 ± 0.0053
ATGATGATAG	1.01 ± 0.02
ATGATGATGA	1.03 ± 0.02
ATGATGCTGG	1.02 ± 0.077
ATGATGTAAT	0.995 ± 0.051
ATGATTACGT	1.01 ± 0.03
ATGATTAGGA	0.987 ± 0.037
ATGATTATGG	1.02 ± 0.014
ATGATTGCGA	1.01 ± 0.061
ATGATTGGA	0.992 ± 0.015
ATGCAACGTC	0.989 ± 0.049
ATGCACAGAT	0.994 ± 0.027
ATGCAGAATT	0.988 ± 0.017
ATGCAGCAGT	1.46 ± 0.051
ATGCAGGTAT	1.01 ± 0.049
ATGCATCGAG	1.01 ± 0.03
ATGCATCTAT	0.989 ± 0.011
ATGCATGGGG	1.01 ± 0.017
ATGCCAATAA	1.01 ± 0.03
ATGCCCGTCG	1.06 ± 0.043

Sequence	switch fluorescence ratio
ATGCCGGGGG	1 ± 0.021
ATGCGCAGCG	1.04 ± 0.035
ATGCGCTCGA	1.02 ± 0.053
ATGCGCTGGG	1.01 ± 0.021
ATGCGGAGTG	0.987 ± 0.02
ATGCGGGGTC	1.03 ± 0.053
ATGCGGTCCT	1.02 ± 0.016
ATGCGGTCGG	1.02 ± 0.045
ATGCGTAGGT	0.988 ± 0.049
ATGCGTATCC	1 ± 0.034
ATGCTGATGT	1.016 ± 0.0011
ATGCTGGGGT	0.986 ± 0.021
ATGCTGGGTA	0.997 ± 0.026
ATGCTTCTGT	0.964 ± 0.013
ATGCTTGATT	1.017 ± 0.0041
ATGGAAAAGC	1 ± 0.056
ATGGAAAGAA	0.974 ± 0.038
ATGGAAAGTT	0.99 ± 0.035
ATGGAACTTG	0.9943 ± 0.0059
